Assay [1] addresses T1, latrunculin B bound actin (A. castellani actin monomer) (A. castellani). In words: fluorescence polarisation.
The target in assay [2] is actin filaments (polymerized A. castellani actin) (A. castellani). The assay can be described thus: steady state polymerization titration.
In assay [3] the target is T1, latrunculin B bound actin (A. …). In words: fluorescence polarisation. This is another data set of the same source.

Read-outs that look alike come from different tables or passages of the source.

In the case of KKDAHAMILEFIRSRPPLKKASDRQLGPPRMCEPS (domain or fragment, modifications not checked) [Spir third WH2 domain with Linker 3 (SC3)], the Kd – broadly, a measure of binding affinity in units of concentration – in assay [1] worked out at 110 nM.
In the case of KKDAHAMILEFIRSRPPLKKA (domain or fragment, modifications not checked) [Spir third WH2 domain (Spir-C, SC)], the Kd in assay [1] turned out to be 210 nM; in assay [2] it was 2000 nM.
WARFWVQVIDELRRGVRLKKSNHERT (domain or fragment, modifications not checked) [Spir first WH2 domain (SA)]: the Kd was 90 to 1130 nM in assay [3] and 1140 nM in assay [1].
